{
  "source": "patent US20180185464A1",
  "target": "human DC-SIGN (human) (UniProt Q9NNX6)",
  "sequence (Q9NNX6 whole entry)": "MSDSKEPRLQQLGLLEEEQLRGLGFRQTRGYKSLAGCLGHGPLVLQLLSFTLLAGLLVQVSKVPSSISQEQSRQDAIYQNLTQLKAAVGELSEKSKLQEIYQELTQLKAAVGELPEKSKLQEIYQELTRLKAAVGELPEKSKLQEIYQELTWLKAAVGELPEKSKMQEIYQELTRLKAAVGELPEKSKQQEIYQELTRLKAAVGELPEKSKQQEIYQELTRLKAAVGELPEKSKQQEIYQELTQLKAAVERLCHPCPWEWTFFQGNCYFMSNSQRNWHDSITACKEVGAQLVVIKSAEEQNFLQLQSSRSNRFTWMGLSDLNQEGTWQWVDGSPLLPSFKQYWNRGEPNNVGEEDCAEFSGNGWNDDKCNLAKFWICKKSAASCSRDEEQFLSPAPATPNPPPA",
  "assay": "cell-based or functional assay",
  "data": [
    {"substance": "histidine tagged gp120 (gp120-6his)", "values": [
      {"measurement": "Internalisation (MFI) DC-SIGN transgenic CD11c+ cells, PBS wash; liposomes engrafted with gp120-6his 27.43 µg/mL, 37 C (unengrafted 74.3)", "result": 118},
      {"measurement": "Internalisation (MFI) DC-SIGN transgenic CD11c+ cells, imidazole wash; liposomes engrafted with gp120-6his 27.43 µg/mL, 37 C (unengrafted 77.2)", "result": 126}
    ]},
    {"substance": "histidine-tagged FliC (FliC-6his) (from UniProt P06179 2-495) (ligand)", "values": [
      {"measurement": "Internalisation (MFI) DC-SIGN transgenic CD11c+ cells, PBS wash; liposomes engrafted with FliC-6his 23.04 µg/mL, 37 C (unengrafted 74.3)", "result": 70.8},
      {"measurement": "Internalisation (MFI) DC-SIGN transgenic CD11c+ cells, imidazole wash; liposomes engrafted with FliC-6his 23.04 µg/mL, 37 C (unengrafted 77.2)", "result": 79.2}
    ]}
  ]
}
